What was measured:
Assay in all cases: DTNB continuous spectrophotometric thioesterase assay
Format in all cases: biochemical, Escherichia coli
Conditions in all cases: pH 7.5, 25 °C
[1] = substrate: CC(=O)SCCNC(=O)CCNC(=O)[C@H](O)C(C)(C)COP(=O)(O)OP(=O)(O)OC[C@H]1O[C@@H](n2cnc3c(N)ncnc32)[C@H](O)[C@@H]1OP(=O)(O)O
[2] = substrate: CC(C)(COP(=O)(O)OP(=O)(O)OC[C@H]1O[C@@H](n2cnc3c(N)ncnc32)[C@H](O)[C@@H]1OP(=O)(O)O)[C@@H](O)C(=O)NCCC(=O)NCCSC(=O)Cc1cccc(O)c1
[3] = substrate: CC(C)(COP(=O)(O)OP(=O)(O)OC[C@H]1O[C@@H](n2cnc3c(N)ncnc32)[C@H](O)[C@@H]1OP(=O)(O)O)[C@@H](O)C(=O)NCCC(=O)NCCSC(=O)c1ccc(O)cc1
[4] = substrate: CC(C)(COP(=O)(O)OP(=O)(O)OC[C@H]1O[C@@H](n2cnc3c(N)ncnc32)[C@H](O)[C@@H]1OP(=O)(O)O)[C@@H](O)C(=O)NCCC(=O)NCCSC(=O)c1cccc(O)c1
[5] = substrate: CCC(=O)SCCNC(=O)CCNC(=O)[C@H](O)C(C)(C)COP(=O)(O)OP(=O)(O)OC[C@H]1O[C@@H](n2cnc3c(N)ncnc32)[C@H](O)[C@@H]1OP(=O)(O)O
[6] = substrate: CCCCCC(=O)SCCNC(=O)CCNC(=O)[C@H](O)C(C)(C)COP(=O)(O)OP(=O)(O)OC[C@H]1O[C@@H](n2cnc3c(N)ncnc32)[C@H](O)[C@@H]1OP(=O)(O)O
[7] = substrate: CCCCCCCCCC(=O)SCCNC(=O)CCNC(=O)[C@H](O)C(C)(C)COP(=O)(O)OP(=O)(O)OC[C@H]1O[C@@H](n2cnc3c(N)ncnc32)[C@H](O)[C@@H]1OP(=O)(O)O
[8] = substrate: CCCCCCCCCCCC(=O)SCCNC(=O)CCNC(=O)[C@H](O)C(C)(C)COP(=O)(O)OP(=O)(O)OC[C@H]1O[C@@H](n2cnc3c(N)ncnc32)[C@H](O)[C@@H]1OP(=O)(O)O
[9] = substrate: CCCCCCCCCCCCCCCC(=O)SCCNC(=O)CCNC(=O)[C@H](O)C(C)(C)COP(=O)(O)OP(=O)(O)OC[C@H]1O[C@@H](n2cnc3c(N)ncnc32)[C@H](O)[C@@H]1OP(=O)(O)O

B1: EntH (Escherichia coli K-12) (protein)
chain: MIWKRHLTLDELNATSDNTMVAHLGIVYTRLGDDVLEAEMPVDTRTHQPFGLLHGGASAALAETLGSMAGFMMTRDGQCVVGTELNATHHRPVSEGKVRGVCQPLHLGRQNQSWEIVVFDEQGRRCCTCRLGTAVLG
[1]
  Km: 800 ± 90 µM
  kcat: 0.0044 ± 0.0002 s⁻¹
[2]
  Km: 37 ± 1 µM
  kcat: 2.1 ± 0.5 s⁻¹
[3]
  Km: 21 ± 2 µM
  kcat: 1.55 ± 0.05 s⁻¹
[4]
  Km: 35 ± 1 µM
  kcat: 1.21 ± 0.01 s⁻¹
[5]
  Km: 400 ± 40 µM
  kcat: 0.0125 ± 0.0006 s⁻¹
[6]
  Km: 350 ± 90 µM
  kcat: 0.058 ± 0.001 s⁻¹
[7]
  Km: 49 ± 3 µM
  kcat: 0.0267 ± 0.0004 s⁻¹
[8]
  Km: 45 ± 2 µM
  kcat: 0.0281 ± 0.0003 s⁻¹
[9]
  Km: 55 ± 9 µM
  kcat: 0.085 ± 0.004 s⁻¹
